# According to the supplement of paper PMC10567573:
# B1: C10orf62 (parent)
# chain: TSECPSDKDKSPESHKAKNESWIK
# B2: TRIM43 (parent)
# chain: FCDMDKSLLCLLCSNSQEHGAHKH
# Variants of: B1
# Assay: protein stability index of a GFP-peptide fusion (GPS, HEK-293T) (PSI 1-6); higher = more stable
# Settings: c terminus: a fixed tail appended
# 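Note: lentivirally expressed fusions sorted by FACS into six bins by GFP to DsRed ratio, PSI derived from sequencing read proportions per bin multiplied by bin number.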
row,Variant,protein stability index
1,W22R,5.84
2,W22S,5.82
3,W22T,5.54
4,W22V,5.79
5,W22Y,5.23
6,I23A,3.68
7,I23C,2.89
8,I23D,5.72
9,I23E,3.96
10,I23F,5.32
11,I23G,5.32
12,I23H,5.18
13,I23K,4.59
14,I23L,4.46
15,I23M,4.7
16,I23N,5.17
17,I23P,5.81
18,I23Q,2.89
19,I23R,5.25
20,I23S,3.79
21,I23T,3.33
22,I23V,1.74

row,Variant,protein stability index
1,I23W,5.11
2,I23Y,5.21
3,K24A,2.9
4,K24C,3.2
5,K24D,2.99
6,K24E,2.15
7,K24F,3.37
8,K24G,3.77
9,K24H,3.56
10,K24I,2.69
11,K24L,2.66
12,K24M,2.76
13,K24N,3.17
14,K24P,4.73
15,K24Q,2.27
16,K24R,3.92
17,K24S,3.48
18,K24T,3.18
19,K24V,2.96
20,K24W,3.43
21,K24Y,3.16

# Variants of: B2
# Assay: as above
# Settings: c terminus: a fixed tail appended
row,Variant,protein stability index
1,F1A,3.33
2,F1C,3.54
3,F1D,3.56
4,F1E,4.17
5,F1G,3.49
6,F1H,3.64
7,F1I,2.81
8,F1K,3.56
9,F1L,3.21
10,F1M,3.41
11,F1N,3.57
12,F1P,3.6
13,F1Q,3.72
14,F1R,3.57
15,F1S,3.72
16,F1T,3.21
17,F1V,3.25
18,F1W,2.45
19,F1Y,1.88
20,C2A,1.54
21,C2D,3.65
22,C2E,3.4
23,C2F,2.23
24,C2G,1.77
25,C2H,2.22

row,Variant,protein stability index
1,C2I,1.8
2,C2K,3.4
3,C2L,2.21
4,C2M,2.31
5,C2N,2.58
6,C2P,2.76
7,C2Q,2.43
8,C2R,2.84
9,C2S,2.51
10,C2T,1.84
11,C2V,1.86
12,C2W,2.38
13,C2Y,2.9
14,D3A,2.15
15,D3C,2.26
16,D3E,2.09
17,D3F,2
18,D3G,1.99
19,D3H,2.35
20,D3I,1.94
21,D3K,2.35
22,D3L,1.93
23,D3M,2.54
24,D3N,1.75
25,D3P,1.67

row,Variant,protein stability index
1,D3Q,2.07
2,D3R,1.99
3,D3S,1.99
4,D3T,1.82
5,D3V,2.76
6,D3W,1.8
7,D3Y,2.48
8,M4A,2.07
9,M4C,3.14
10,M4D,2.86
11,M4E,2.58
12,M4F,2.04
13,M4G,1.96
14,M4H,3.6
15,M4I,1.96
16,M4K,1.7
17,M4L,1.98
18,M4N,1.85
19,M4P,2
20,M4Q,1.88
21,M4R,2.16
22,M4S,2.19
23,M4T,1.64
24,M4V,2.11
25,M4W,2.13

row,Variant,protein stability index
1,M4Y,2.07
2,D5A,2.67
3,D5C,2.02
4,D5E,1.92
5,D5F,3.03
6,D5G,2.33
7,D5H,3.33
8,D5I,3.01
9,D5K,2.22
10,D5L,2.69
11,D5M,2.97
12,D5N,1.8
13,D5P,2.29
14,D5Q,1.98
15,D5R,1.74
16,D5S,1.79
17,D5T,2.34
18,D5V,2.74
19,D5W,3.29
20,D5Y,2.18
21,K6A,2.06
22,K6C,1.95
23,K6D,2.96
24,K6E,2.29
25,K6F,2.24

row,Variant,protein stability index
1,K6G,2.18
2,K6H,2.09
3,K6I,2.04
4,K6L,1.97
5,K6M,2.21
6,K6N,2.32
7,K6P,2.12
8,K6Q,2.38
9,K6R,1.56
10,K6S,2.17
11,K6T,1.94
12,K6V,1.74
13,K6W,2.04
14,K6Y,2.17
15,S7A,1.77
16,S7C,2.26
17,S7D,2.48
18,S7E,2.12
19,S7F,2.72
20,S7G,1.92
21,S7H,2.22
22,S7I,1.84
23,S7K,1.92
24,S7L,1.93
25,S7M,2.23

row,Variant,protein stability index
1,S7N,2.22
2,S7P,2.62
3,S7Q,2.54
4,S7R,1.65
5,S7T,2.04
6,S7V,1.79
7,S7W,1.79
8,S7Y,2.1
9,L8A,2.43
10,L8C,2.64
11,L8D,3.41
12,L8E,3.8
13,L8F,2.5
14,L8G,2.3
15,L8H,2.54
16,L8I,1.96
17,L8K,2.86
18,L8M,2.31
19,L8N,2.81
20,L8P,2.51
21,L8Q,2.82
22,L8R,2.71
23,L8S,3.1
24,L8T,2.32
25,L8V,2.72

row,Variant,protein stability index
1,L8W,2.3
2,L8Y,2.03
3,L9A,1.99
4,L9C,2.36
5,L9D,2.78
6,L9E,2.99
7,L9F,1.89
8,L9G,1.64
9,L9H,1.93
10,L9I,1.91
11,L9K,2.61
12,L9M,1.92
13,L9N,2.52
14,L9P,2.84
15,L9Q,2.68
16,L9R,2.08
17,L9S,1.88
18,L9T,2.29
19,L9V,2.16
20,L9W,1.55
21,L9Y,1.46
22,C10A,2.23
23,C10D,2.18
24,C10E,2.23
25,C10F,2.58

row,Variant,protein stability index
1,C10G,1.64
2,C10H,2.03
3,C10I,2.06
4,C10K,2.04
5,C10L,2.14
6,C10M,2.15
7,C10N,1.83
8,C10P,2.3
9,C10Q,1.86
10,C10R,1.7
11,C10S,1.59
12,C10T,1.72
13,C10V,1.86
14,C10W,2.57
15,C10Y,2.65
16,L11A,2.21
17,L11C,1.44
18,L11D,2.75
19,L11E,2.93
20,L11F,2.04
21,L11G,1.93
22,L11H,2.04
23,L11I,2.25
24,L11K,2.2
25,L11M,1.86

row,Variant,protein stability index
1,L11N,2.07
2,L11P,1.83
3,L11Q,2.36
4,L11R,2.19
5,L11S,1.8
6,L11T,2.51
7,L11V,1.63
8,L11W,2.79
9,L11Y,2.26
10,L12A,1.92
11,L12C,2.56
12,L12D,2.32
13,L12E,2.55
14,L12F,1.47
15,L12G,1.57
16,L12H,2.78
17,L12I,1.78
18,L12K,2.12
19,L12M,2.06
20,L12N,2.14
21,L12P,1.91
22,L12Q,2.65
23,L12R,1.96
24,L12S,2.65
25,L12T,1.95

row,Variant,protein stability index
1,L12V,1.93
2,L12W,3.13
3,L12Y,1.75
4,C13A,1.15
5,C13D,1.99
6,C13E,2.13
7,C13F,1.89
8,C13G,1.9
9,C13H,1.88
10,C13I,2.04
11,C13K,2.15
12,C13L,2.07
13,C13M,2.19
14,C13N,1.87
15,C13P,2.13
16,C13Q,2.53
17,C13R,2.13
18,C13S,1.61
19,C13T,1.83
20,C13V,2.3
21,C13W,2.72
22,C13Y,1.68
23,S14A,1.87
24,S14C,1.88
25,S14D,1.72

row,Variant,protein stability index
1,S14E,2.02
2,S14F,1.45
3,S14G,2.26
4,S14H,1.87
5,S14I,1.52
6,S14K,2.12
7,S14L,2.08
8,S14M,1.85
9,S14N,2.01
10,S14P,1.98
11,S14Q,2.09
12,S14R,2.2
13,S14T,2.02
14,S14V,1.71
15,S14W,2.06
16,S14Y,1.82
17,N15A,1.6
18,N15C,1.77
19,N15D,2.26
20,N15E,1.92
21,N15F,2.01
22,N15G,1.94
23,N15H,1.55
24,N15I,2.49
25,N15K,2.26

row,Variant,protein stability index
1,N15L,2.4
2,N15M,1.66
3,N15P,1.34
4,N15Q,1.87
5,N15R,2.1
6,N15S,2.07
7,N15T,1.77
8,N15V,1.89
9,N15W,1.89
10,N15Y,2.09
11,S16A,1.8
12,S16C,1.87
13,S16D,1.97
14,S16E,1.8
15,S16F,2.13
16,S16G,2.22
